According to publication PMC6635019:
Several values for one entry are separate records, joined by “and”; a condition that tells them apart may be missing. Equal values may be shown once.

Assays:
LL-37 (human) = experiment: native MS
gramicidin A = experiment: native MS

Substance | stoichiometry N (LL-37 (human)) | stoichiometry N (gramicidin A)
LL-37 (peptide) | 2 and 3 and 4 | 
gramicidin A (peptide) |  | 2
